B1: ASPase A1 (Bacillus licheniformis) (protein)
chain: MNKKVALITTGGTIASRKTESGRLAAGAISGPELAEMCSLPEDVQIDVYPAFQLPSMHITFEHLLELKQTIERVFQNGGYDGAVVTHGTDTLEETAYFLDLTIEDERPVVVTGSQRAPEQQGTDAYTNIRHAVYTACSPDIKGAGTVVVFNERIFNARYVKKVHASNLQGFDVFGFGYLGIIDNDKVYVYQKPLKRDVHQLQRPLPAVDIVKCYLDGDGKFIRAAVREGVEGIVLEGVGRGQVPPNMMADIEQALNQGVYIVITTSAEEGEVYTTYDYAGSSYDLAKKGVILGKDYDSKKARMKLAVLLASYKEGLKDKFCY
B2: ASPase E (Leunase) (Escherichia coli K-12) (protein)
chain: LPNITILATGGTIAGGGDSATKSNYTVGKVGVENLVNAVPQLKDIANVKGEQVVNIGSQDMNDNVWLTLAKKINTDCDKTDGFVITHGTDTMEETAYFLDLTVKCDKPVVMVGAMRPSTSMSADGPFNLYNAVVTAADKASANRGVLVVMNDTVLDGRDVTKTNTTDVATFKSVNYGPLGYIHNGKIDYQRTPARKHTSDTPFDVSKLNELPKVGIVYNYANASDLPAKALVDAGYDGIVSAGVGNGNLYKSVFDTLATAAKTGTAVVRSSRVPTGATTQDAEVDDAKYGFVASGTLNPQKARVLLQLALTQTKDPQQIQQIFNQY

Substrate: NC(=O)C[C@H](N)C(=O)O
Experiment: purified protein
Settings: 50 mM Tris-HCl, pH 8.6, 37 °C

Protein | Km [µM] | kcat [s⁻¹] | kcat/Km [M⁻¹ s⁻¹]
B1 | 10.30 | 24 | 2.33e+06
B2 | 5.788 | 7.73 | 1.34e+06

Source: paper PMC6378094
